# According to patent US20150141617A1, “PRODUCTION AND PURIFICATION OF ACTIVE EUKARYOTIC FORMYLGLYCINEGENERATING ENZYME (FGE) VARIANTS” (Universität Bielefeld, priority 2013, published 2015):
# The star is where a group is joined. Decanoyl = CCCCCCCCCC(=O)*; CH2Cl = ClC*
# T1: steroid sulfatase (STS), expressed from pBI-STS in MSDi Tet-On cells (UniProt P08842 22-583, limits assumed)
# T1 sequence (looked up): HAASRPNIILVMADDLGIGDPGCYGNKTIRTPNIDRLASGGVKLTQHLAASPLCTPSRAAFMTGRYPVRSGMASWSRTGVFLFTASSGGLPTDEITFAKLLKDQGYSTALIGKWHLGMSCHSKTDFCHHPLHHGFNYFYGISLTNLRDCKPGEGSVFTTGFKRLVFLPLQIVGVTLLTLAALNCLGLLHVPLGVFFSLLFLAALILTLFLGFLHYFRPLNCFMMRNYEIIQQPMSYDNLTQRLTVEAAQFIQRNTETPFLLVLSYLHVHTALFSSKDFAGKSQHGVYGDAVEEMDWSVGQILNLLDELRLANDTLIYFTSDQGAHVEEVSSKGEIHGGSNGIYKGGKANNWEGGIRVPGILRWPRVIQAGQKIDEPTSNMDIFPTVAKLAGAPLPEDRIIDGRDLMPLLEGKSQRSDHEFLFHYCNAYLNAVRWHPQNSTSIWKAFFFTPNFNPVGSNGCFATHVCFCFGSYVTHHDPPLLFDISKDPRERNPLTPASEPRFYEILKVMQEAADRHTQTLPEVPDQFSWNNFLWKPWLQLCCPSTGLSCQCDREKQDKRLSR
# T2: 23 amino acid substrate peptide Ac-MTDFYVPVSLCTPSRAALLTGRS-NH2 (SEQ ID NO: 46)
# T2 chain: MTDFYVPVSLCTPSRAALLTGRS
# B1: FGE-HA (human formylglycine generating enzyme, wild type, C-terminal HA tag, expressed from pBI-FGE-HA in mammalian cells) (enzyme, UniProt Q8NBK3 34-374, looked up, not shown: small tags and cut ends)
# chain: SQEAGTGAGAGSLAGSCGCGTPQRPGAHGSSAAAHRYSREANAPGPVPGERQLAHSKMVPIPAGVFTMGTDDPQIKQDGEAPARRVTIDAFYMDAYEVSNTEFEKFVNSTGYLTEAEKFGDSFVFEGMLSEQVKTNIQQAVAAAPWWLPVKGANWRHPEGPDSTILHRPDHPVLHVSWNDAVAYCTWAGKRLPTEAEWEYSCRGGLHNRLFPWGNKLQPKGQHYANIWQGEFPVTNTGEDGFQGTAPVDAFPPNGYGLYNIVGNAWEWTSDWWTVHHSVEETLNPKGPPSGKDRVKKGGSYMCHRSYCYRYRCAARSQNTPDSSASNLGFRCAADRLPTMD
# B2: fl-FGE-R69A/R72A (SEQ ID NO: 4), produced in High Five insect cells (enzyme)
# chain: ADEFSQEAGTGAGAGSLAGSCGCGTPQRPGAHGSSAAAHAYSAEANAPGPVPGERQLAHSKMVPIPAGVFTMGTDDPQIKQDGEAPARRVTIDAFYMDAYEVSNTEFEKFVNSTGYLTEAEKFGDSFVFEGMLSEQVKTNIQQAVAAAPWWLPVKGANWRHPEGPDSTILHRPDHPVLHVSWNDAVAYCTWAGKRLPTEAEWEYSCRGGLHNRLFPWGNKLQPKGQHYANIWQGEFPVTNTGEDGFQGTAPVDAFPPNGYGLYNIVGNAWEWTSDWWTVHHSVEETLNPKGPPSGKDRVKKGGSYMCHRSYCYRYRCAARSQNTPDSSASNLGFRCAADRLPTMDSGRGSHHHHHHH
# notes: It has four extra N-terminal residues (ADEF), human FGE from S34 with R69A and R72A, and a C-terminal SGRGS-His7; After size exclusion it occurs as a monomer and as a disulfide-bridged dimer; also called Baculo-fl-FGE; recombinant fl-FGE-R69A/R72A
# How the values were obtained:
# [1] = biological target: T3, recombinant furin (rFurin) (Homo sapiens, UniProt P09958); assay: In vitro furin cleavage assay; type: biochemical; settings: 25 μM inhibitor, HT1080 cell lysate
# T3 construct: purchased NEB
# T3 sequence (P09958 108-794): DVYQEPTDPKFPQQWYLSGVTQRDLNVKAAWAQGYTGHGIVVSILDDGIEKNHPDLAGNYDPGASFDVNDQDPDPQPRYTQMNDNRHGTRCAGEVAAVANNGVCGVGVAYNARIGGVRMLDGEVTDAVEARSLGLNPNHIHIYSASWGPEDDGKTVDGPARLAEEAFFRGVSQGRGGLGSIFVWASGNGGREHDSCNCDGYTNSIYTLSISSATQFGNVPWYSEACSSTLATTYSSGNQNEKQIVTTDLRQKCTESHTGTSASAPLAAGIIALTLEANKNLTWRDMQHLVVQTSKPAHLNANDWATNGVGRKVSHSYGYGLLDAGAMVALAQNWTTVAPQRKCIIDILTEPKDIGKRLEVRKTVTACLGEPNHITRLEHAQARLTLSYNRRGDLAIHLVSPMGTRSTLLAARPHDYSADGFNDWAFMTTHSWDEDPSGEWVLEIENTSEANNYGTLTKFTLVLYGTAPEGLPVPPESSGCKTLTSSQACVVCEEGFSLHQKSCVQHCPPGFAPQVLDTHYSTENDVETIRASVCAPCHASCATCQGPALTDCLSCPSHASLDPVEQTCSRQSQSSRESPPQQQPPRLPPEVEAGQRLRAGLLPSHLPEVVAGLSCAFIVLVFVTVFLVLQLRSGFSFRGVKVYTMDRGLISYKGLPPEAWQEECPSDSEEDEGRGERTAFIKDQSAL
# Method: (§1) CHO-FD11 cells stably expressing FGE-His6 or HT1080 cells were grown for 24 h, and cells and medium were harvested. For treatment with furin in vitro cell pellets were resuspended in HEPES pH 7.5 buffer containing 1 mM CaCl2 and 0.5% Triton X-100 and lysed in the absence of protease inhibitors by sonication on ice. Appropriate amounts of cell lysate and medium were incubated for 3 h at 25° C. with 4 units of furin (NEB) with or without 25 μM decanoyl-RVKR-CMK (Alexis biochemicals) as indicated in the figures. For in vivo treatment, HT1080 Tet-On cells were transiently transfected with pBI-FGE-HA and 4 h post-transfection, the medium was replenished with medium containing 20 ng/mL doxycycline and various concentrations of decanoyl-RVKR-CMK or only DMSO as a carrier control. The cells and medium were collected after 16 h of induction/treatment for further analysis. The samples were boiled in Laemmli buffer and analyzed by SDS-PAGE and western blotting with FGE antiserum.
# In mammals, the proproteinconvertase family comprises nine enzymes that differ in their substrate specificity and tissue-specific expression and/or subcellular localization (17). Furin is the best characterized mammalian PC with a ubiquitous tissue distribution and it is the major convertase in the secretory pathway. To analyze the role of furin in the processing of FGE the inventors expressed FGE in cells that are deficient for furin. […] When cell homogenate and medium from CHO-FD11 cells stably expressing FGE-His were treated with commercially available recombinant furin (rFurin), almost half the amount of FGE was processed, as observed for both cells and medium (FIG. 12D). Using this in vitro furin cleavage assay, the inventors also examined whether endogenous intracellular FGE is susceptible to furin processing. Indeed, rFurin readily converted almost 90% of endogenous fl-FGE from untransfected HT1080 cells to the truncated form (FIG. 12E).
# Although FGE is an ER resident protein, it lacks a canonical ER-retention motif. […] In this study, using the in vitro furin cleavage assay, the inventors assessed furin-mediated processing of the FGE-ERp44 covalent complex (FIG. 8). Homogenates, pre-treated with NEM (to prevent post-lysis disulfide shuffling), from HT1080 cells expressing either FGE alone or FGE plus myc-ERp44 together from a bi-directional promoter were incubated with rFurin and analyzed by SDS-PAGE under non-reducing conditions. Upon overexpression, intracellular FGE via its N-terminal cysteines (C50 and C52) forms covalently cross-bridged homodimers (FIG. 15, lane 1 and 2) and, additionally, FGE-ERp44 heterodimers when co-expressed with ERp44 (FIG. 15, lane 4 and 6) as previously observed (13). Removal of the N-terminus by furin cleavage should lead to a disappearance of the homo-/hetero-dimeric FGE forms, which serves as an indicator for accessibility of the furin cleavage motif in FGE.
# [2] = tested on: PCs (furin or furin-like convertases); assay: Treatment of HT1080 Tet-On cells expressing FGE with RVKR-CMK inhibitor; type: cell-based, human; settings: increasing concentrations of the inhibitor, 16 h
# Method: as §1
# In order to verify that the N-terminus of FGE containing the RYSR motif is subject to processing by furin or furin-like convertases, the inventors studied the secretion profile of FGE in cells in the presence of decanoyl-RVKR-ChloroMethylKetone (CMK), an inhibitor for PCs (FIG. 12A). […]
# [3] = biological target: T1, steroid sulfatase (STS), expressed from …; assay: cell-based or functional assay
# [4] = biological target: T2, 23 amino acid substrate peptide …
# [5] = biological target: the molecule itself; assay: size exclusion chromatography (Superdex 200), non-reducing SDS-PAGE and western blot with FGE antiserum
# Method: FIG. 16: Separation of the recombinant fl-FGE-R69A/R72A monomer and dimer by size-exclusion chromatography. (A) The pooled elution fractions from Ni-NTA purification (SM) were further purified in a Superdex (SD200 10/300 GL) column using Ettan LC system (GE health care). The eluted material in 0.5 ml of running buffer (20 mM Tris, pH 8.0 containing 200 mM NaCl) were collected and analyzed in SDS-PAGE under reducing conditions followed by coomassie staining (B) Equal volume of elution fractions obtained as shown in ‘(A)’ were resolved in SDS-PAGE under non-reducing conditions followed by western blot and membrane decorated with FGE anti-serum. (SM: starting material; FGE: monomer; FGE2: dimer).
molecule,measurement,setting,value
"decanoyl-RVKR-ChloroMethylKetone (Decanoyl-RVKR-CH2Cl) [RVKR-CMK, reference compound]",inhibition of furin-mediated processing of FGE,[1],completely abrogated
same,amount of the truncated form of FGE in the secretions,[2],decreased by the inhibitor in a concentration dependent manner
B1,relative specific activity of STS after co-expression in immortalized MSD Tet-On cells,[3],~50 fold
B2,"specific activity, FGly generation in the 23-aa substrate peptide (MALDI-ToF MS), 2 mM DTT as reductant",[4],24.1±1.7 mU/mg in presence of the control reductant DTT
same,"specific activity, FGly generation in the 23-aa substrate peptide (MALDI-ToF MS), 5 mM GSH as reductant",[4],15.6±1.3 mU/mg in presence of GSH
same,binding result,[5],binds
